Results reported in the DeepSol protein solubility set.

Assay: soluble on expression in E. coli; label from the status in PepcDB or PDB records

Sequence | soluble on expression in E. coli
MSLTTILDIAKLAGVAKSTVSRYLNGGSVSEPTRQKIERVIKETGYIPNAFAQSLKAKQTNFIGTIVPRLDSFAASRTVMGIDDELKSLGYQMLMSNTDQSVEREIETIYNLANQKIAGVILLATVITKEHLNAFREVGIPTLLVGQEHTEVPCLIHDDFKAGYEMGKHVLSKGHKRIAYLGVGEHDIAVGVKRKEGFKQAMAEHGPCEVAYFETSFSMQDSFRVSPKMIETYQPSALVCATDNIALGALKGAYSIGMNVPKDLSITGFGGYEVTGIIHPSLTTVNFHFKAAGKMAARKMIKLMNGEEVNHLTRMDVELIERESVDNEGHHHHHH | soluble
MSLTTIPIWDVQQTPELNISAADYSLLTDLYQLTMAACYTGEGVEQRRASFELFVRRSPEGFGYLIAMGLAQALEYLEKLRFSPEQIAALQATGIFAHAGEGFWSLLAEGRFTGDVWAVPEGTAVFANEPLLRVEAPLWQAQLVETYLLNTLNYQTLVATRAARLRDIAGEQATLLEFGTRRAFSPQASLWAARAALAGGLDATSNVLAALQLGQQPSGTMAHALVMALSAMEGSEEQAFSAFHRYFPGAPLLIDTYDTIAAAQHLAEKVNTGKMELSGVRLDSGDLVSLSKQVRSLLPDVSIFASGDLDEWEIAKLQAAGAEIDGYGLGTKLVTGSPVNGVYKLVEIDDIPVMKKSSGKTTYPGRKQIFRSFGDGQVQADRLGLITDTPLITEKPLLELVVKEGQRLQPRETLSAIRQRTAASVASLPEQTRRLDNPVPVPIQISTALQDLTEVTLQRLNEGHHHHHH | not soluble
MSLTTLNIGLILPDVLGTYGDDGNALVLRQRARMRGINAEIQRVTLDDAVPSTLDLYCLGGGEDTAQILATEHLTKDGGLQTAAAAGRPIFAVCAGLQVLGDSFRAAGRVIDGLGLIDATTVSLQKRAIGEVETTPTRAGFTAELTERLTGFENHMGATLLGPDAEPLGRVVRGEGNTDVWAASENTDDQRQQFAEGAVQGSIIATYMHGPALARNPQLADLMLAKAMGVALKEGHHHHHH | not soluble
MSLTTSIPAPPAESIDQVLNLISKGSNGAAQQSKHPLRIVMGSVMISEIGALISGVLKSLNNNFTTQKVWEEDYLVRVMAHLGLFAHAVGSQVSANDLTQLLTLYVQRLSARGFTDLVPLYLSFIPDDSDAREYYSKFLSSITDPSERTKQLQLVRKLGIDSNGDEERMANVLRRTVERVMADTEAEYRPSGEVTVQDEDTDVTETDTKICQSVDWYFENNMYPDAVSASLTVIRRFLACGRLAALRHFVRGKDLKQLVKNYDVDLYTRSLAGLDDGAQVGDADKDEIIQYHLFVQGLELIQDWRKFLKDNQTNSLSAVFWKSKHLESLIEKVSSGIVGLIRDWFQELIATDGTKKEMYQQLRVLYVPYLVMELLDIYQQARMSNWLYVKKAFELVSLVADEDNNDLLTCFVNCGRLDELMVRSGNLAAVACERGIANIFSEGHHHHHH | soluble
MSLTTSKTRKSGVAMTEKLELDPARTAIVLIEYQNEFTSDGGVLHGAVADVMQHTGMLANTVAVVDAARQAGVPIMHAPITFAEGYGELTRHPYGILKGVVDGKAFVKGTWGAAIVDELAPVNGDIVIEGKRGLDTFASTNLDFILRSKGVDTIVLGGFLTNCCVESTMRTGYERGFRVITLTDCVAATSQEEHNNAISYDFPMFSVPMTSADVIAALEGHHHHHH | soluble
MSLTVLPVPDLLARALDRRAGLPGAGTTFFRAVHITETGGLWTLDVAGDAGILSLYTDLSAEAERDLAAQCGEAAGLSSVYLKRRPPEAKHLANVAREVLSPPDPLWGTARPEVTALEEGVPFLIRPGADLSVGLFSDARPARRWVRGHAAGQRVLNTFAYTCGFGLNAALAGAASVKNVDLSRKVLGWGQQNYALSGLAAPDHDFLYGDVFEWLTRLQRRGDLFDLVILDPPGFARSKAGTWRAEKDYGRLMAQASAVTAPGGEVLALLNHAGVSAGGLTHMVEQGLSTAGRRGHLTETLGPGRDYPGATHLKVQRWSLNEGGSHHHHHH | soluble
MSLVDHVHFERELTLLKSDVSKMLFLVSESLNDAIESLETMNETLARKVLESDDMIDELNREIEEKAYQIIARYNPILKQLRYIITILKFSNDLERIGDLSCNIAEKCLFLSEEKIKFEMLKELKDMFGSTLKVVQDAFKAFVEEDVDLAFRLWKFDDVIDEMEKKIRRIVVERIREGNISAELALVYILIARDLERVGDHANNLCEEVIYIETGKNMKEFLRGVESGSEGADSEGGSHHHHHH | soluble
MSLVELQEIFDVSYGSKLDLNKMSSFNPTINFVGRSGKNNGVTASVDLLKNTKPYPAGLLTVALGGSVLSTFLQNKPFYTAQNVAVLNPKTEMTEQQKLFYCAAIFANAYRFSACGREANRTLRQLFVPSLDEIPSWVESVNLNPSAGVTEPKLKESLDLPVVRQSKRLDEIFTIQNGIAATKLKEFEQRQKDTVVYIRPASTQARTLRSYIARDSVDEKHIFPCHTLFTSTNGEGSHTYSYVSTCEFVANSDVAVLTPIQSDMPIEVKLYYAKCITANRYLFSYGRKPKGEKLKSIMLPYFDQQEDFDYICRFIHTLLFSNNLEGHHHHHH | soluble
MSLVENLFLEPQSKRRKINPETIESPSPNCNHWFVRNKICISCYTTVDNFEGRSFDYLYKGMQMSNEALGFTKGLISQTSWLEDKKLHLVLDLDQTLIHTIKTSLLYESEKYIIEEVESRKDIKRFNTGFPEESLIKLRPFVHQFLKECNEMFSMYVYTKGGYDYARLVLEMIDPDKFYFGNRVITRRESPGFKTLDLVLADERGIVIVDDTSSVWPHDKKNLLQIARYKYFGDKSCLFSEDKKKIDESDEKGPLNTALRFLKDVHEEFFYDWSKKDLDSVDVRPLLKEISLRWKRKADGVV | soluble
MSLVFVACGLNHKTAPIHVREKVALQPAMQDSLLSSLLDLPEVNEAAILSTCNRTEIYCDTNTPEVLGNWLAHEHQLSEELLSQFLYIHQGKEGIKHTLRVASGLDSMMIGEPQILGQMKQAYQHACRLGTVKTQLRPVFEYIFRASKRIRTRSGIGANPVSIAYAAVQLIGQLFKNYHSLSVFLIGSGETASLVAKYLHQHGVHRFLIASRTLENAQKLAETFGGKTLSIGDIPQYLPLADVVISATACPLPFINKSLVEHALEQRNHAPMFLLDLAVPRDIEGNVNELEQVHLYNVDDLQSMIEKGMDERRNAALQAEQLIESELDNYIRWHRSLRAKDVICDYRNQMHTLAQQELQRALKKISAGQNQQDVLNEFSMRLVNKLTHNPTIGLRQIAWDNREDLLDLARYLFDTTANQSLYEEISEGHHHHHH | not soluble
MSLVGYSAVSQPSPASFLLGPTLPPAPSIAFRLWRPYSMTARITSVEALPYRLPLTSKLAWGAHSALSAAEHVLVRVTLSDGSVGVAEATPRPTIYGETPGSVTAILQHLEPALLGLDIADEAALNRVRGSVAGNHTARGALDMALWEARAASRGQSLFDTLLGPHERVRVSFILGIAPPAEMLAEAERVVAAGVRCLKVKVGRHAAQDLQVIAELRRRYGDDVQLYADSNETLTLEQAPDVLAAMREAGLMYVEEPLPARDLRARAALHAAGVLPIVADDSCFTPADLERELDFDTFDVLNVKTARNGFTDGLQMLRRAAEHGKRGMVGSQASTGLGTLHAALLSTQAEVTEPCELSFVLKLGDDLLNRPIEFQDGWLNVPELREHRLDEDKLARYRIEGHHHHHH | not soluble
MSLVPARPNRPEADREALWKIVHDRCEFGYRRTGAYAPCTFVDEQSGTALYKADFDPYQFLLIPLARITGIEDPALRESAGRNYLYDAWAARFLVTARLNNSLPESDVVLTINPKNARTQDQLHIHISCSSPTTSAALRNVDTSEYVGWKQLPIDLGGRRFQGLAVDTKAFESRNLFRDIYLKVTADGKKMENASIAVANVAQDQFLLLLAEGTEDQPVAAETLQDHDCSITKSEGHHHHHH | soluble
MSLVRSKAPLRLGLAGGGSDVSPYSDIYGGLILNATINLYAYCTIEETNSGRIEINAYDAQCCKSYLSMSQLEIDGEASLIKGVYNRIIRDYRLEPKSFKITTYNDAPAGSGLGTSSTMVVCILKAFIEWLSLPLGDYETSRLAYEIERKDLGLSGGKQDQYAAAFGGFNYMEFLQNDLVIVNPLKMKRWIVDELESSMVLYFTGRSRSSAAIINEQKKNTSEGNQTAIEAMHKIKQSAIDTKLALLKGDVGEFARILGEGWENKKKMAGAITNPMIQEAFDVATGAGAMAGKVSGAGGGGFIMFVVEPTRKEEVVRALNNLNGFVMPFQFIDDGAHGWKIYSTDKVQKEGHHHHHH | soluble
MSLVTIYDVAAKAGVSIKTVSRVMNNEPNVRPVMRERVLAAAGELGYSPNLSARSLAGSRSFVIAVFVDAALTIDHWQSERGADYLSRIQLGATLVCRDAGYHLLIELIDHEGPQVRQEVAALLAALKPDGVILTPPSSDNAVVLELLDRAGTPYVRVGPERAEGLGPRVHMDDVAAAREMTDHLIGLGHKRIGFIVGEPRYGASQARRDGYLEAMRAKGLSVPEFWVRQGDFTFQSGLEQAKALLALPERPTAIFASNDDMALGAIAAIADAGLMTPGDVSVAGFDDSPSSRFSRPQLTTVRQPVAEMSSVAAKLLIERSRGGASTERPVDELLPFTLIHRASTEGHHHHHH | not soluble
MSLVTKGKSAQYIKDESAFEDFLIGSGLEEASLSLSSGEVRTGQDLRAVIDDALAIRTLINGLHTRYSRTVVEQAAIAGALNPDLFNDLGRANAMAETIARRLDLVAEDTERGWQGRTSTSNEGPGGYIMERTVRGVKESATLDMALLGSADARALDRYAARLGEEGHHHHHH | not soluble
MSLVTRSVLKFGGSSVSDFTKIKRIAEMLKERVNQDEQLIVVVSAMGNTTDQLMTNVSTLTKAPKQQELALLLTTGEQQTVSYLSMVLNDIGVNAKAMTGYQAGIKTIGHHLKSKIAQINPQTFEQAFQENDILVVAGFQGINEHQELTTLGRGGSDTTAVALAVSNQIPCEIYTDVDGVYATDPRLLPKAKRLDIVSYEEMMEMSALGAGVLETRSVELAKNYNIPLYLGKTLSNVKGTWIMSNEEILEKKAVTGVALDKHMMHVTISYPLPDNQLLTQLFTELEEGAVNVDMISQIVNLDGLQLSFTIKDSDFHQISMILETLKNQYEALAYKINEHYVKISLIGSGMRDMSGVASKAFLTLIENNIPFYQTTTSEISISYVIDDFNGQQAVEKLYDAFNIEGHHHHHH | soluble
MSLYKAYLIDLDGTMYRGAEVIPEAIIFIENLKRAGLPYLFVTNNSTKTPGQVAEHLTDMGIQAVSDDVFTTSQATVQFMMEQKREKTVYVIGERGIKQELTDNGFEITSSNPAFVVVGLDREVDYEKFSKAALAVRGGAMFISTNGDAAIPTERGLLPGNGSITSVVSVATETAPIFIGKPESIIMEQALAKLGVHKDEAIMVGDNYETDIMAGINYGMDTLIVHTGFTSKEALLTKEIQPTYAVTKLTDWEFNEGHHHHHH | not soluble
MSMAMSQSNRELVVDFLSYKLSQKGYSWSQFSDVEENRTEAPEGTESEAVKQALREAGDEFELRYRRAFSDLTSQLHITPGTAYQSFEQVVNELFRDGVNWGRIVAFFSFGGALCVESVDKEMQVLVSRIAAWMATYLNDHLEPWIQENGGWDTFVELYGNNAAAESRKGQERLEHHHHHH | soluble
MSNARIGIDMSKIYAPKSIDLSSFQLPDEKLQTKYGLPHKVEFCKSCVISNQRPNSAVEYEHKKESKKHTIHFDDEGICDACRVAERKKSTINWEERDRQLRELCDRFRSKDGSYDCVVPGSGGKDSFYAAHILKYKYGMNPLTVTWAPHMYTPWGWRNFQSWIHAGFDNHLFTPNGRVHRLLTRLAVENLFHPFQPFMIGQKAYAPKMALLHKIKLVVYGENEAEYGNPIGDTESAKRDWKYFTADDKSKIFLGGTSVQELKSDFGLNDNDLDAYLPADPQQIEEQQVEVHYLGYYLKWHPQSCYYYSVEHGGFEASPERTPGTYSKYNSIDDKIDDFHYYTTLTKFGIGRATYDASQEIRSGDITVEEGVALVKRFDQEFPERFAEEIFKYLSINLKEFPIASQMFEQPIMDRAYFMALADTFRSPHLWKKDGEQWKLRHQVTNLEKTKAEYLDLETV | not soluble
